The results in this text go back to publication PMC8545088.

Experiment [1] addresses PorZ from P. gingivalis (P. gingivalis W83). The experiment is described as follows: other fluorescence titration; microscale fluorescence (initial fluorescence, Monolith NT.115): 20 nM NT-647-labelled PorZ with 1 × 10^5 EU/ml A-LPS from W83, titrated with PorU (3 nM to 100 μM) in PBS, 25°C; 1:1 binding model.
Experiment [2] has the same target. The experiment is described as follows: other fluorescence titration; microscale fluorescence (initial fluorescence, Monolith NT.115): 20 nM NT-647-labelled PorZ titrated with PorU (3 nM to 100 μM) in PBS, 25°C, without A-LPS; 1:1 binding model.

B1: PorU sortase from P. gingivalis, hexahistidine-tagged (enzyme)
chain: QRAMGKTADRSLMASGHWVKIRVDASGVYRLTDEQLRANGFSDPSKVGVFGYGGGVLPEDLSRITTDDLPPVPVLRQGNALYFYAVGPVTWFYNPAKTTMEHTVNTYSTHGYYFLSDAAGAPLQMSQYTGGGASAEALIDYYDELMLHEQELYSPKESGRDLYGESFSAVNTRTVKFPLRGNTRSSGELGTVFSYIAKARSAGGGREMSLSANGILIFSDPFSMTSNEVSNSYLAGKKRRLYRSTPMNSLVNELRLDANYSMTGDAVNLDFIEVATQNDLRYDGAPMHIRRFSNLPVLGGESCRFVISEVPESLVVLQANSSLTASLVPVKTVGDKTIEFVAPPKGQDRRTINTFYAVDLSQASAPEILGAVPNQNLHGEEIPDLIIVSTQALLPEADRLATYRREKNGLKVLVVLQEQVFNEFSGGTPDATAYRLFAKMFYDRWKANAPVGETFPMQMLLFGDGAHDNRKVSVAWQKPYLQQTEFLLTFQAVNSTNVNSYVTDDYFGLLDDQPASVNIGWRNYNMAVGRFPVRTPAEARIAVDKTIRYEEDRESGAWRIRACFAADNGDKHATETSRLIDTVKRYAPAIMPVRAFQDVYPHVIENGLHSIPGAKKKMLETLQSGIILLNYAGHGGPAGWSDEHLLTLNDIHNFNYKHMPIWITATCDFANYDSQTTSAGEEVFLHEKSGTPIMFSTTRVVYNTQNEKINGFMLRRMFEKAKDGRYRTMGEIIRSAKQGMLSTVFPDSINQLSFFLMGDPSVRMNLPTHKVQLTAINGQDPEGQYGTIMLKSLERVALKGKVTDEKGTFDETFSGKVFLTVFDGRKKMTALEEEGNDLSLVYYDYPNVMYAGIAEVKDGLFETSFIVPKDVNYSEHEGRINLYAYNESTKAEAMGVDFSIRVQPGIPDEVTEDNTPPEIISCFLNDSTFRSGDEVNPTPLFMAEVFDLNGINITGSGVGHDITLCIDGRADLTYNLNAYFTSSATDAGVGTILFMIPALAEGDHTARLTVWDIFNNAVHHDFSFRVVDGIAPDVADVILFPNPVRESATFRIFHNRPGSDLNVVVEIYDFTGRLVNSLPVKTYSSSYGEPIEIKWDLTSKYGVKIGNGFYLYRCVVNSPGGQTASMAKKMIVVAQ
In the case of B1, the Kd – broadly, the free concentration of one partner at which half of the binding sites on the other are occupied at equilibrium, for simple one-to-one binding – in experiment [1] worked out at 0.7 µM; in experiment [2], 3.4 µM.
